The RNAGym collection of RNA variant scans (doi:10.1093/molbev/msab373)

B1: Azoarcus group I ribozyme (parent)
chain: GUGCCUUGCGCCGGGAAACCACGCAAGGGAUGGUGUCAAAUUCGGCGAAACCUAAGCGCCCGCCCGGGCGUAUGGCAACGCCGAGCCAAGCUUCGGCGCCUGCGCCGAUGAAGGUGUAGAGACUAGACGGCACCCACCUAAGGCAAACGCUAUGGUGAAGGCAUAGUCCAGGGAGUGGCGAAAGUCACACAAACCGG

Variants of: B1
Experiment: reverse-splicing fitness (ratio to wild type); higher = more active; in vitro selection; Mg2+ level not given
How it was run: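 An in vitro group I ribozyme library with randomized positions was T7-transcribed and gel-purified. In triplicate, 10 pmol RNA in EPPS pH 7.5 was reacted with 50 pmoles of a 30-nt RNA substrate for 1 h at 37 °C across several added MgCl2 levels (1–48 mM), then stopped with EDTA. Products were reverse transcribed from a substrate-complementary primer, PCR-amplified and sequenced (HiSeq 4000). Fitness is a variant's read proportion after selection over that before, normalised to wild type.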
In the case of GUGCCUUGCGCCGGGAAACCACGCAAGGGAUGGUGUCAAAUUCGGCGAAACCUAAGCGCCCGCCCGGGCGUAUGGCAACGCCGAGCCAAGCUUCGGCGCCUGCGCCGAUGGAGGUGUAGCGACUAGACGGCACCCACCUAAGGCCAACGUUAUGGUGAAGGCAUAGUCAAGGGAGGGGCGAAAGUCACACAAACCGG, the reverse-splicing fitness is reported as 0.00419.
For GUGCCUUGCGCCGGGAAACCACGCAAGGGAUGGUGUCAAAUUCGGCGAAACCUAAGCGCCCGCCCGGGCGUAUGGCAACGCCGAGCCAAGCUUCGGCGCCUGCGCCGAUGGAGGUGUAGCGACUAGACGGCACCCACCUAAGGCCAACGUUAUGGUGAAGGCAUAGUCAAGGGAGCGGCGAAAGUCACACAAACCGG, the reverse-splicing fitness was 0.00426.
GUGCCUUGCGCCGGGAAACCACGCAAGGGAUGGUGUCAAAUUCGGCGAAACCUAAGCGCCCGCCCGGGCGUAUGGCAACGCCGAGCCAAGCUUCGGCGCCUGCGCCGAUGGAGGUGUAGCGACUAGACGGCACCCACCUAAGGCCAACGUUAUGGUGAAGGCAUAGUCGAGGGAGCGGCGAAAGUCACACAAACCGG showed a reverse-splicing fitness of 0.00855.
Variant GUGCCUUGCGCCGGGAAACCACGCAAGGGAUGGUGUCAAAUUCGGCGAAACCUAAGCGCCCGCCCGGGCGUAUGGCAACGCCGAGCCAAGCUUCGGCGCCUGCGCCGAUGGAGGUGUAGCGACUAGACGGCACCCACCUAAGGCCAACGUUAUGGUGAAGGCAUAGUCGAGGGAGGGGCGAAAGUCACACAAACCGG has a reverse-splicing fitness of 0.0049.
For GUGCCUUGCGCCGGGAAACCACGCAAGGGAUGGUGUCAAAUUCGGCGAAACCUAAGCGCCCGCCCGGGCGUAUGGCAACGCCGAGCCAAGCUUCGGCGCCUGCGCCGAUGGAGGUGUAGCGACUAGACGGCACCCACCUAAGGCCAACGUUAUGGUGAAGGCAUAGUCGAGGGAGAGGCGAAAGUCACACAAACCGG, the reverse-splicing fitness was 0.0186.
For GUGCCUUGCGCCGGGAAACCACGCAAGGGAUGGUGUCAAAUUCGGCGAAACCUAAGCGCCCGCCCGGGCGUAUGGCAACGCCGAGCCAAGCUUCGGCGCCUGCGCCGAUGGAGGUGUAGCGACUAGACGGCACCCACCUAAGGCGAACGAUAUGGUGAAGGCAUAGUCCAGGGAGUGGCGAAAGUCACACAAACCGG, the reverse-splicing fitness was 0.166.
Work on GUGCCUUGCGCCGGGAAACCACGCAAGGGAUGGUGUCAAAUUCGGCGAAACCUAAGCGCCCGCCCGGGCGUAUGGCAACGCCGAGCCAAGCUUCGGCGCCUGCGCCGAUGGAGGUGUAGCGACUAGACGGCACCCACCUAAGGCCAACGUUAUGGUGAAGGCAUAGUCCAGGGAGGGGCGAAAGUCACACAAACCGG yielded a reverse-splicing fitness of 0.05.
Variant GUGCCUUGCGCCGGGAAACCACGCAAGGGAUGGUGUCAAAUUCGGCGAAACCUAAGCGCCCGCCCGGGCGUAUGGCAACGCCGAGCCAAGCUUCGGCGCCUGCGCCGAUGGAGGUGUAGCGACUAGACGGCACCCACCUAAGGCCAACGUUAUGGUGAAGGCAUAGUCCAGGGAGCGGCGAAAGUCACACAAACCGG has a reverse-splicing fitness of 0.158.
GUGCCUUGCGCCGGGAAACCACGCAAGGGAUGGUGUCAAAUUCGGCGAAACCUAAGCGCCCGCCCGGGCGUAUGGCAACGCCGAGCCAAGCUUCGGCGCCUGCGCCGAUGGAGGUGUAGCGACUAGACGGCACCCACCUAAGGCCAACGUUAUGGUGAAGGCAUAGUCCAGGGAGAGGCGAAAGUCACACAAACCGG gave a reverse-splicing fitness of 0.17.
For GUGCCUUGCGCCGGGAAACCACGCAAGGGAUGGUGUCAAAUUCGGCGAAACCUAAGCGCCCGCCCGGGCGUAUGGCAACGCCGAGCCAAGCUUCGGCGCCUGCGCCGAUGGAGGUGUAGCGACUAGACGGCACCCACCUAAGGCCAACGCUAUGGUGAAGGCAUAGUCUAGGGAGUGGCGAAAGUCACACAAACCGG, the reverse-splicing fitness was 0.223.
GUGCCUUGCGCCGGGAAACCACGCAAGGGAUGGUGUCAAAUUCGGCGAAACCUAAGCGCCCGCCCGGGCGUAUGGCAACGCCGAGCCAAGCUUCGGCGCCUGCGCCGAUGGAGGUGUAGCGACUAGACGGCACCCACCUAAGGCCAACGCUAUGGUGAAGGCAUAGUCGAGGGAGUGGCGAAAGUCACACAAACCGG gave a reverse-splicing fitness of 0.0105.
For GUGCCUUGCGCCGGGAAACCACGCAAGGGAUGGUGUCAAAUUCGGCGAAACCUAAGCGCCCGCCCGGGCGUAUGGCAACGCCGAGCCAAGCUUCGGCGCCUGCGCCGAUGGAGGUGUAGCGACUAGACGGCACCCACCUAAGGCCAACGCUAUGGUGAAGGCAUAGUCAAGGGAGUGGCGAAAGUCACACAAACCGG, the reverse-splicing fitness was 0.0128.
GUGCCUUGCGCCGGGAAACCACGCAAGGGAUGGUGUCAAAUUCGGCGAAACCUAAGCGCCCGCCCGGGCGUAUGGCAACGCCGAGCCAAGCUUCGGCGCCUGCGCCGAUGGAGGUGUAGCGACUAGACGGCACCCACCUAAGGCCAACGCUAUGGUGAAGGCAUAGUCUAGGGAGCGGCGAAAGUCACACAAACCGG gave a reverse-splicing fitness of 0.061.
In the case of GUGCCUUGCGCCGGGAAACCACGCAAGGGAUGGUGUCAAAUUCGGCGAAACCUAAGCGCCCGCCCGGGCGUAUGGCAACGCCGAGCCAAGCUUCGGCGCCUGCGCCGAUGGAGGUGUAGCGACUAGACGGCACCCACCUAAGGCCAACGCUAUGGUGAAGGCAUAGUCUAGGGAGAGGCGAAAGUCACACAAACCGG, the reverse-splicing fitness is reported as 0.0611.
For GUGCCUUGCGCCGGGAAACCACGCAAGGGAUGGUGUCAAAUUCGGCGAAACCUAAGCGCCCGCCCGGGCGUAUGGCAACGCCGAGCCAAGCUUCGGCGCCUGCGCCGAUGGAGGUGUAGCGACUAGACGGCACCCACCUAAGGCCAACGCUAUGGUGAAGGCAUAGUCUAGGGAGGGGCGAAAGUCACACAAACCGG, the reverse-splicing fitness was 0.00718.
For GUGCCUUGCGCCGGGAAACCACGCAAGGGAUGGUGUCAAAUUCGGCGAAACCUAAGCGCCCGCCCGGGCGUAUGGCAACGCCGAGCCAAGCUUCGGCGCCUGCGCCGAUGGAGGUGUAGCGACUAGACGGCACCCACCUAAGGCCAACGUUAUGGUGAAGGCAUAGUCUAGGGAGCGGCGAAAGUCACACAAACCGG, the reverse-splicing fitness was 0.0214.
In the case of GUGCCUUGCGCCGGGAAACCACGCAAGGGAUGGUGUCAAAUUCGGCGAAACCUAAGCGCCCGCCCGGGCGUAUGGCAACGCCGAGCCAAGCUUCGGCGCCUGCGCCGAUGGAGGUGUAGCGACUAGACGGCACCCACCUAAGGCCAACGUUAUGGUGAAGGCAUAGUCUAGGGAGGGGCGAAAGUCACACAAACCGG, the reverse-splicing fitness is reported as 0.00415.
With GUGCCUUGCGCCGGGAAACCACGCAAGGGAUGGUGUCAAAUUCGGCGAAACCUAAGCGCCCGCCCGGGCGUAUGGCAACGCCGAGCCAAGCUUCGGCGCCUGCGCCGAUGGAGGUGUAGCGACUAGACGGCACCCACCUAAGGCCAACGUUAUGGUGAAGGCAUAGUCUAGGGAGAGGCGAAAGUCACACAAACCGG the reverse-splicing fitness was 0.0273.
In the case of GUGCCUUGCGCCGGGAAACCACGCAAGGGAUGGUGUCAAAUUCGGCGAAACCUAAGCGCCCGCCCGGGCGUAUGGCAACGCCGAGCCAAGCUUCGGCGCCUGCGCCGAUGGAGGUGUAGCGACUAGACGGCACCCACCUAAGGCCAACGCUAUGGUGAAGGCAUAGUCAAGGGAGGGGCGAAAGUCACACAAACCGG, the reverse-splicing fitness is reported as 0.00335.
In the case of GUGCCUUGCGCCGGGAAACCACGCAAGGGAUGGUGUCAAAUUCGGCGAAACCUAAGCGCCCGCCCGGGCGUAUGGCAACGCCGAGCCAAGCUUCGGCGCCUGCGCCGAUGGAGGUGUAGCGACUAGACGGCACCCACCUAAGGCCAACGCUAUGGUGAAGGCAUAGUCAAGGGAGAGGCGAAAGUCACACAAACCGG, the reverse-splicing fitness is reported as 0.0086.
For GUGCCUUGCGCCGGGAAACCACGCAAGGGAUGGUGUCAAAUUCGGCGAAACCUAAGCGCCCGCCCGGGCGUAUGGCAACGCCGAGCCAAGCUUCGGCGCCUGCGCCGAUGGAGGUGUAGCGACUAGACGGCACCCACCUAAGGCCAACGCUAUGGUGAAGGCAUAGUCAAGGGAGCGGCGAAAGUCACACAAACCGG, the reverse-splicing fitness was 0.00508.
Work on GUGCCUUGCGCCGGGAAACCACGCAAGGGAUGGUGUCAAAUUCGGCGAAACCUAAGCGCCCGCCCGGGCGUAUGGCAACGCCGAGCCAAGCUUCGGCGCCUGCGCCGAUGGAGGUGUAGCGACUAGACGGCACCCACCUAAGGCCAACGUUAUGGUGAAGGCAUAGUCUAGGGAGUGGCGAAAGUCACACAAACCGG yielded a reverse-splicing fitness of 0.0786.
In the case of GUGCCUUGCGCCGGGAAACCACGCAAGGGAUGGUGUCAAAUUCGGCGAAACCUAAGCGCCCGCCCGGGCGUAUGGCAACGCCGAGCCAAGCUUCGGCGCCUGCGCCGAUGGAGGUGUAGCGACUAGACGGCACCCACCUAAGGCCAACGUUAUGGUGAAGGCAUAGUCGAGGGAGUGGCGAAAGUCACACAAACCGG, the reverse-splicing fitness is reported as 0.00938.
Variant GUGCCUUGCGCCGGGAAACCACGCAAGGGAUGGUGUCAAAUUCGGCGAAACCUAAGCGCCCGCCCGGGCGUAUGGCAACGCCGAGCCAAGCUUCGGCGCCUGCGCCGAUGGAGGUGUAGCGACUAGACGGCACCCACCUAAGGCCAACGCUAUGGUGAAGGCAUAGUCGAGGGAGAGGCGAAAGUCACACAAACCGG has a reverse-splicing fitness of 0.0167.
With GUGCCUUGCGCCGGGAAACCACGCAAGGGAUGGUGUCAAAUUCGGCGAAACCUAAGCGCCCGCCCGGGCGUAUGGCAACGCCGAGCCAAGCUUCGGCGCCUGCGCCGAUGGAGGUGUAGCGACUAGACGGCACCCACCUAAGGCCAACGCUAUGGUGAAGGCAUAGUCGAGGGAGCGGCGAAAGUCACACAAACCGG the reverse-splicing fitness was 0.00881.
GUGCCUUGCGCCGGGAAACCACGCAAGGGAUGGUGUCAAAUUCGGCGAAACCUAAGCGCCCGCCCGGGCGUAUGGCAACGCCGAGCCAAGCUUCGGCGCCUGCGCCGAUGGAGGUGUAGCGACUAGACGGCACCCACCUAAGGCCAACGCUAUGGUGAAGGCAUAGUCGAGGGAGGGGCGAAAGUCACACAAACCGG gave a reverse-splicing fitness of 0.00352.
GUGCCUUGCGCCGGGAAACCACGCAAGGGAUGGUGUCAAAUUCGGCGAAACCUAAGCGCCCGCCCGGGCGUAUGGCAACGCCGAGCCAAGCUUCGGCGCCUGCGCCGAUGGAGGUGUAGCGACUAGACGGCACCCACCUAAGGCCAACGCUAUGGUGAAGGCAUAGUCCAGGGAGGGGCGAAAGUCACACAAACCGG gave a reverse-splicing fitness of 0.129.
Variant GUGCCUUGCGCCGGGAAACCACGCAAGGGAUGGUGUCAAAUUCGGCGAAACCUAAGCGCCCGCCCGGGCGUAUGGCAACGCCGAGCCAAGCUUCGGCGCCUGCGCCGAUGGAGGUGUAGCGACUAGACGGCACCCACCUAAGGCCAACGCUAUGGUGAAGGCAUAGUCCAGGGAGAGGCGAAAGUCACACAAACCGG has a reverse-splicing fitness of 0.42.
For GUGCCUUGCGCCGGGAAACCACGCAAGGGAUGGUGUCAAAUUCGGCGAAACCUAAGCGCCCGCCCGGGCGUAUGGCAACGCCGAGCCAAGCUUCGGCGCCUGCGCCGAUGGAGGUGUAGCGACUAGACGGCACCCACCUAAGGCCAACGCUAUGGUGAAGGCAUAGUCCAGGGAGCGGCGAAAGUCACACAAACCGG, the reverse-splicing fitness was 0.419.
In the case of GUGCCUUGCGCCGGGAAACCACGCAAGGGAUGGUGUCAAAUUCGGCGAAACCUAAGCGCCCGCCCGGGCGUAUGGCAACGCCGAGCCAAGCUUCGGCGCCUGCGCCGAUGGAGGUGUAGCGACUAGACGGCACCCACCUAAGGCGAACGCUAUGGUGAAGGCAUAGUCCAGGGAGUGGCGAAAGUCACACAAACCGG, the reverse-splicing fitness is reported as 0.688.
